Reference: US20060009381A1 (I P RANDYWYCK B V, published 2006)

Target: the molecule itself
Assay: FRET by flow cytometry, mixtures of Annexin A5-FITC and Annexin A5-Alexa568 on PtdSer-coated paramagnetic beads
Description: Formation of two-dimensional lattices on the phospholipids surfaces was assessed FRET (fluorescence resonance energy transfer) analysis. Paramagnetic beads (1-4 μm in diameter) that were coated with a phospholipids bilayer containing PtdSer were incubated with mixtures of Annexin A5-FITC and Annexin A5-Alexa568 or mixtures of M23-FITC and M23-Alexa568. Fluorescence intensity of the beads was then measured by flow cytometry (Coulter Epics XL-MLC™) using an excitation of 488 nm and emission ranges of 515-530 nm (F11) and >600 nm (F13).

B1: Annexin A5 (other)
chain: AQVLRGTVTDFPGFDERADAETLRKAMKGLGTDEESILTLLTSRSNAQRQEISAAFKTLFGRDLLDDLKSELTGKFEKLIVALMKPSRLYDAYELKHALKGAGTNEKVLTEIIASRTPEELRAIKQVYEEEYGSSLEDDVVGDTSGYYQRMLVVLLQANRDPDAGIDEAQVEQDAQALFQAGELKWGTDEEKFITIFGTRSVSHLRKVFDKYMTISGFQIEETIDRETSGNLEQLLLAVVKSIRSIPAYLAETLYYAMKGAGTDDHTLIRVMVSRSEIDLFNIRKEFRKNFATSLYSMIKGDTSGDYKKALLLLCGEDD
modifications: FITC or Alexa568-succinimidylester coupled to amines (positions not stated)
notes: The FRET assay used mixtures of Annexin A5-FITC and Annexin A5-Alexa568 on paramagnetic beads coated with a PtdSer bilayer; also called Annexin A5-FITC; Annexin A5-Alexa568
- binding result: binds
